Laboratory results from patent publication US20230364014A1, “SELF-ASSEMBLED GELS FOR CONTROLLED DELIVERY OF BIOLOGICS AND METHODS OF MAKING THEREOF” (Alivio Therapeutics, Inc., priority 2018, published 2023).

Key:
[1] = Encapsulation efficiency in self-assembled AP microfibers versus non-assembled AP powder suspension (Coomassie Assay); type: physicochemical; conditions: 10 mg/mL AP mixed with equal volume of 2 mg/mL mAb in PBS, 22° C. for 2 hours, FIG. 5
Procedure: Ascorbyl palmitate (AP) microfiber suspensions were prepared using the self-assembly process described in Example 1 or, alternatively, using a non-assembled AP particulate used as-is from the manufacturer (USP grade ascorbyl palmitate, Sigma-Aldrich). […] After loading/incubation at 22° C. for 2 hours, the suspensions were centrifuged at 20,000×g for 10 minutes at 4° C. The supernatant was then removed and tested for soluble protein via the Coomassie Assay to determine the encapsulation efficiency.

TNF-α = molecular target: T1, TNF-α (Homo sapiens, UniProt P01375); test: TNF-α activity assay with fibroblast L929 cells (L929 viability assay); type: cell-based; conditions: 1 ng/mL TNF-α in 2% serum, compared to IFX and ADA controls, FIG. 2
T1 construct: host or cells: added to murine fibroblast L929 cells
Procedure: Activity was measured using the TNF-α activity assay with fibroblast L929 cells (Gibco cytotoxicity assay for recombinant proteins).

[2] = pKa / isoelectric point and pH-dependent loading into AP microfiber suspensions; type: physicochemical; conditions: FIG. 4
Source text: Agent loading level can also be pH and/or charge-dependent and loading of the agent(s) may be controlled and/or optimized based using the pKa and isoelectric (pI) point of the agent. […] Accordingly, agent loading and encapsulation efficiency may be optimized/maximized by loading gel suspensions at a pH above the pKa of the gelator(s) and a pH which is below the isoelectric (pI) point of the agent(s) which are being loaded onto the gel.

[3] = Time-dependent loading of antibody into ascorbyl palmitate microfibers (HPLC); type: physicochemical
Procedure: The efficiency of antibody (i.e., IFX or ADA) loading into ascorbyl palmitate microfibers was found be time dependent. […] (and following 3 washes with PBS by centrifugation at 5000 rpm for 10 mins at 4° C.). However, by extending the loading/incubation time to 20 hours (2 hours at 22° C., 18 hours at 4° C.), the loading increased to 14% (wt/wt %).

[4] = cited from earlier work

T1 sequence (P01375 77-233 limits assumed): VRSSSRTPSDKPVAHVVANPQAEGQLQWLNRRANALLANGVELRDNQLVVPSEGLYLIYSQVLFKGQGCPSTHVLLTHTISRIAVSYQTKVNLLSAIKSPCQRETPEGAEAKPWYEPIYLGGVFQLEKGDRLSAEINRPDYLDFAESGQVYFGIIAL

adalimumab
encapsulation of antibody, self-assembled AP microfiber suspension relative to non-self-assembled AP powder suspension [1]: greater encapsulation | activity of mAb released from gels against TNF-α (TNF-α): active against TNF-α | influence of pH on loading and encapsulation efficiency [2]: highest loading and encapsulation efficiencies are observed at a pH above the pKa of AP but below the pI

infliximab [IFX]
loading ([3]; after 10 minutes of loading/incubation at 22° C., following 3 washes with PBS): 7 % (wt/wt %) | theoretical maximum loading ([3]; calculated from amounts of IFX and AP combined during loading): approximately 16.7 % (wt/wt %) | loading ([3]; loading/incubation time 20 hours (2 hours at 22° C., 18 hours at 4° C.)): 14 % (wt/wt %)

CCCCCCCCCCCCCCCC(=O)OC[C@H](O)[C@H]1OC(=O)C(O)=C1O [AP, ascorbyl palmitate]
pKa [4]: 4.4
